According to PMC9029033:

Each sequence was assayed against T1, VPA0041-His (Vibrio parahaemolyticus RIMD 2210633) (UniProt Q87K57) (assay: EMSA). Details: EMSA: 20 uL, 10 ng probe (15 ng in Fig 5 legend), 1 ug poly(dI:dC), 4 uL 5x binding buffer (10 mM NaCl, 0.1 mM DTT, 0.1 mM EDTA, 10 mM Tris, pH 7.4), 25 C ….
T1 sequence: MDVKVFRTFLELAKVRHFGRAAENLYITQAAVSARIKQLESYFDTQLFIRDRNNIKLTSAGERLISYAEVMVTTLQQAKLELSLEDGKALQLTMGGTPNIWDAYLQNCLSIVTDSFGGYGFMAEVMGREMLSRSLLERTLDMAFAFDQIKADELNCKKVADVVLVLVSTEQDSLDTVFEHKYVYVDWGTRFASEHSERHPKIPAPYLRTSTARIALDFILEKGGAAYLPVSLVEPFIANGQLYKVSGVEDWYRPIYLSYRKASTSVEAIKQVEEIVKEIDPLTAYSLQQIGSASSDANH
In the case of “CATCTTAGTCTCCTTAGTTTATCACTATTTCTTTCAGGCCTTGGGATATTCCCTAGTCACTAACTAGAGGCGGTCGCTTGCCACTAATGATTAATTTGAAAATTAAAAATTTTCTAAAAAAGATCAAAATTGATGATTTTTAGTGACTTGCATTCCACTAAGTTGGGGTTTGCTACCGTTTTAGCGTTAGTTTCCGATGTGCTTTGATCGGCATCGTCGACCTGCAGGCA (double strand) [vpa1548 promoter (promoter-1)]”, the binding is reported as “binds”. With “CATGCATCTTTCCTTACAGTCGGCTCGAATACGCCAAGATACAAACAAGATACATCGTCGACCTGCAGGCA (double strand) [vpa0264 promoter-3]” the binding was “no binding”. With “TGCCTGCAGGTCGACGATAGACATACTTTCAAGGCATAGAGTTACGCCAATTACCAATGAGAGAGGGAGTAAGCTCGTG (double strand) [vpa1550 promoter-4]” the binding was “binds”. For “TGCCTGCAGGTCGACGATCAAGTCAATGTTTTAAAAGAATATTCAAGTTAGGCACGTATCTTGCGATAAGACATACTTTCAAGGCATAGAGTTACGCCAATTACCAATGAGAGAGGGAGTAAGCTCGTG (double strand) [vpa1550 promoter-3]”, the binding was “binds”. “TGCCTGCAGGTCGACGATGGAACACATAAGGTGGAAAATACACTTCCTCTCAAATTTAAATAGTATCGCAAGTCAATGTTTTAAAAGAATATTCAAGTTAGGCACGTATCTTGCGATAAGACATACTTTCAAGGCATAGAGTTACGCCAATTACCAATGAGAGAGGGAGTAAGCTCGTG (double strand) [vpa1550 promoter-2]” was tested, and the binding was “binds”. “TGCCTGCAGGTCGACGATGTTTGTCCTGTCGAAAGAATTCCTAATAACAGTATCCACTTTGAGGAAATTAGAGTTTTCCCCCTAATTTTTTTGCTTTCCGTAAACCGGAAGTTTGGTTTCCACTCTTGTTTGTAAGTCATTGATAAATATAAATAAAATTTATGGCACGTATCTTGTTTGTATCTTGGCGTATTCGAGCCGACTGTAAGGAAAGATGCATG (double strand) [vpa0264 promoter]” was tested, and the binding was “binds”. With “TGCCTGCAGGTCGACGATTAGAGTTTTCCCCCTAATTTTTTTGCTTTCCGTAAACCGGAAGTTTGGTTTCCACTCTTGTTTGTAAGTCATTGATAAATATAAATAAAATTTATGGCACGTATCTTGTTTGTATCTTGGCGTATTCGAGCCGACTGTAAGGAAAGATGCATG (double strand) [vpa0264 promoter-1]” the binding was “binds”. With “TGCCTGCAGGTCGACGATTCCACTCTTGTTTGTAAGTCATTGATAAATATAAATAAAATTTATGGCACGTATCTTGTTTGTATCTTGGCGTATTCGAGCCGACTGTAAGGAAAGATGCATG (double strand) [vpa0264 promoter-2]” the binding was “binds”. In the case of “TGCCTGCAGGTCGACGATTTAGTCGCCTTGTCTTATAGGGAAACACTAGATGTTTTCGAGAGGAAGGCGGAACACATAAGGTGGAAAATACACTTCCTCTCAAATTTAAATAGTATCGCAAGTCAATGTTTTAAAAGAATATTCAAGTTAGGCACGTATCTTGCGATAAGACATACTTTCAAGGCATAGAGTTACGCCAATTACCAATGAGAGAGGGAGTAAGCTCGTG (double strand) [vpa1550 promoter (promoter-1)]”, the binding is reported as “binds”.
